Each block holds one binder with its values, some of them ahead of it.
How the values were obtained:
[1] = biological target: T1, IgG1-Fc (RED Systems; 110-HG-100) (UniProt P01857-1 100-330 = IgG part); experiment: Sulfo-SBED photo-crosslinking to HL-60 cells, Protein A pull-down, anti-PSGL-1 Western blot
T1 construct: domain: Fc; Negative control, coupled to Sulfo-SBED; also called negative isotype control IgG-Fc
Description: Also in these experiments, samples of VISTA-Fc fusion protein (described in Example I) and negative controls of an anti-CD28 antibody (BioXcell, BE0248) and IgG1-Fc (RED Systems; 110-HG-100) were covalently coupled to a bifunctional linker (Sulfo-SBED—ThermoFisher Scientific; 33073) using the manufacturing recommended conditions. The resulting samples were incubated with HL-60 cells for 30 min. at room temperature in a dark place. Crosslinking was photoactivated with a UV light source for 20 min. Cells were then lysed and a Protein A Sepharose pull-down was performed. A Western Blot using an anti-PSGL-1 polyclonal antibody (RED Systems; AF3345) or Streptavidin-HRP was performed on the samples.

VISTA-Fc fusion protein [2] = biological target: T2, VISTA-Fc fusion protein (human); experiment: biosensor, VISTA-Fc immobilized; estimated affinity, called qualitative
T2 construct: The limits of the VISTA and Fc parts are marked only by underline and bold, which are not preserved
T2 chain: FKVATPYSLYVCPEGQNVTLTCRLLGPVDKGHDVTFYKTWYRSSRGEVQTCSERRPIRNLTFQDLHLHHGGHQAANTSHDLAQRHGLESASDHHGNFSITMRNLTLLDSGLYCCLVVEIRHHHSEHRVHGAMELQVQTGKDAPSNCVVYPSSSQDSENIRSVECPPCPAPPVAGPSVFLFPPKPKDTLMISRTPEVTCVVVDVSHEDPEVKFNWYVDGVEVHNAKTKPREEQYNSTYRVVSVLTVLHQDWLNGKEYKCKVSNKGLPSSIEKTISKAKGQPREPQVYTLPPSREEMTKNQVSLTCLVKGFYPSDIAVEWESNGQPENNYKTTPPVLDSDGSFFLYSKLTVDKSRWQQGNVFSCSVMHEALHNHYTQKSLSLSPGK

VISTA-Fc fusion protein [3] = biological target: T2, VISTA-Fc fusion protein; experiment: biosensor, VISTA-Fc immobilized, PSGL-1B in flow (0.3-9.6 µM), HBS with Ca and Mg; two-state binding model
Description: (§1) The immobilized VISTA-Fc sample was equilibrated in HEPES buffered saline (HBS) containing calcium (1.5 mM calcium chloride) and magnesium (1.0 mM magnesium chloride). The same buffer was used as running buffer. Samples containing the PSGL-1A or PSGL-1B, which also contained calcium and magnesium, were flowed across a solid surface containing the immobilized VISTA-Fc at a flow rate of 60 μl/min, with 120 seconds of contact time and 300 seconds for dissociation after the surface was regenerated with a 3 second pulse of glycine (pH 1.5). Six difference concentrations of PSGL-1A and PSGL-1B were assayed (0.3 μM, 0.60 μM, 1.20 μM, 2.4 μM, 4.8 μM and 9.6 μM).
(§2) Two different analyses of the experiments were performed: (1) a two-state binding model; and (2) an equilibrium affinity analysis (1:1 model).

VISTA-Fc fusion protein [4] = biological target: T2, VISTA-Fc fusion protein; experiment: biosensor, VISTA-Fc immobilized, PSGL-1B in flow (0.3-9.6 µM), HBS with Ca and Mg; equilibrium affinity analysis (1:1 model)
Description: as §1, §2

VISTA-Fc fusion protein [5] = biological target: T2, VISTA-Fc fusion protein; experiment: biosensor, VISTA-Fc immobilized, PSGL-1A in flow (0.3-9.6 µM), HBS with Ca and Mg; two-state binding model
Description: as §1, §2

VISTA-Fc fusion protein [6] = biological target: T2, VISTA-Fc fusion protein; experiment: biosensor, VISTA-Fc immobilized, PSGL-1A in flow (0.3-9.6 µM), HBS with Ca and Mg; equilibrium affinity analysis (1:1 model)
Description: as §1, §2

- binding result [1]: no binding
B1: P-selectin glycoprotein ligand 1 (PSGL-1) expressed on human cells (receptor)
chain: QATEYEYLDYDFLPETEPPEMLRNSTDTTPLTGPGTPESTTVEPAARRSTGLDAGGAVTELTTELANMGNLSTDSAAMEIQTTQPAATEAQTTPLAATEAQTTRLTATEAQTTPLAATEAQTTPPAATEAQTTQPTGLEAQTTAPAAMEAQTTAPAAMEAQTTPPAAMEAQTTQTTAMEAQTTAPEATEAQTTQPTATEAQTTPLAAMEALSTEPSATEALSMEPTTKRGLFIPFSVSSVTHKGIPMAASNLSVNYPVGAPDHISVKQCLLAILILALVATIFFVCTVVLAVRLSRKGHMYPVRNYSPTEMVCISSLLPDGGEGPSATANGGLSKAKSPGLTPEPREDREGDDLTLHSFLP
notes: Endogenous protein on cells; also called SELPLG; CD162

- Kd (VISTA-Fc fusion protein [2]): ~5 µM
- Kd (VISTA-Fc fusion protein [3]): 5.09 µM
- Kd (VISTA-Fc fusion protein [4]): 4.76 µM
B2: PSGL-1 construct B (Fc-fused PSGL-1 with IgG kappa signal sequence and tandem repeat unit) (Fc fusion)
chain: DQATEYEYLDYDFLPETEPPEMLRNSTDTTPLTGPGTPESTTVEPAARRSTGLDAGGAVTELTTELANMGNLSTDSAAMEIQTTQPAATEAQTTQPVPTEAQTTPLAATEAQTTRLTATEAQTTPLAATEAQTTPPAATEAQTTQPTGLEAQTTAPAAMEAQTTAPAAMEAQTTPPAAMEAQTTQTTAMEAQTTAPEATEAQTTQPTATEAQTTPLAAMEALSTEPSATEALSMEPTTKRGLFIPFSVSSVTHKGIPMAASNLSVNYPVGAPDHISVARSVECPPCPAPPVAGPSVFLFPPKPKDTLMISRTPEVTCVVVDVSHEDPEVKFNWYVDGVEVHNAKTKPREEQYNSTYRVVSVLTVLHQDWLNGKEYKCKVSNKGLPSSIEKTISKAKGQPREPQVYTLPPSREEMTKNQVSLTCLVKGFYPSDIAVEWESNGQPENNYKTTPPVLDSDGSFFLYSKLTVDKSRWQQGNVFSCSVMHEALHNHYTQKSLSLSPGK
notes: Its limits are marked only by italic, which is not preserved; Cells were co-transfected with GCNT1 and FUT3 glycosyltransferases; also called PSGL-1B

- Kd (VISTA-Fc fusion protein [2]): ~3 µM
- Kd (VISTA-Fc fusion protein [5]): 32.1 µM
- Kd (VISTA-Fc fusion protein [6]): 3.01 µM
B3: PSGL-1 construct A (Fc-fused PSGL-1 with IgG kappa signal sequence and propeptide sequence) (Fc fusion)
chain: QATEYEYLDYDFLPETEPPEMLRNSTDTTPLTGPGTPESTTVEPAARRSTGLDAGGAVTELTTELANMGNLSTDSAAMEIQTTQPAATEAQTTPLAATEAQTTRLTATEAQTTPLAATEAQTTPPAATEAQTTQPTGLEAQTTAPAAMEAQTTAPAAMEAQTTPPAAMEAQTTQTTAMEAQTTAPEATEAQTTQPTATEAQTTPLAAMEALSTEPSATEALSMEPTTKRGLFIPFSVSSVTHKGIPMAASNLSVARSVECPPCPAPPVAGPSVFLFPPKPKDTLMISRTPEVTCVVVDVSHEDPEVKFNWYVDGVEVHNAKTKPREEQYNSTYRVVSVLTVLHQDWLNGKEYKCKVSNKGLPSSIEKTISKAKGQPREPQVYTLPPSREEMTKNQVSLTCLVKGFYPSDIAVEWESNGQPENNYKTTPPVLDSDGSFFLYSKLTVDKSRWQQGNVFSCSVMHEALHNHYTQKSLSLSPGK
notes: Their limits are marked only by italic and bold, which are not preserved; Cells were co-transfected with GCNT1 and FUT3 glycosyltransferases for post-translational modification; also called PSGL-1A

Source: patent publication US20230243836A1 (published 2023)
